Measurements reported in patent publication US20240376185A1 (SMIVET B V, published 2024).

Assays:
[1] = molecular target: T1, tetanus neurotoxin (TeNT), authentic tetanus holotoxin (Clostridium tetani, UniProt P04958 2-1315); experiment: competition ELISA on TeNT, binder biotinylated; competitor SVT06L
Target sequence in this assay (P04958 2-457 limits assumed, chain 1 of 2): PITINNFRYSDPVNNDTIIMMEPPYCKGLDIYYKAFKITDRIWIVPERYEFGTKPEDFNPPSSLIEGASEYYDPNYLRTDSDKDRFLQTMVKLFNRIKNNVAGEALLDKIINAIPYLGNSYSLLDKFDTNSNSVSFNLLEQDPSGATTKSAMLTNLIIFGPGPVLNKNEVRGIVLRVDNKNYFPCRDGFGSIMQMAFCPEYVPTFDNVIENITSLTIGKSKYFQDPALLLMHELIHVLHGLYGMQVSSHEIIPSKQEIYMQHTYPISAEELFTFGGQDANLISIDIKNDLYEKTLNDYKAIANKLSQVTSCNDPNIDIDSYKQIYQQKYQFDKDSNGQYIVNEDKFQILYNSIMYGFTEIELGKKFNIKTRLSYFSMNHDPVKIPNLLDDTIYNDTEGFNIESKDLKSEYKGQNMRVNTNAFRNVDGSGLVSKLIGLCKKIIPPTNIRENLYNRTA
Target sequence in this assay (P04958 458-1315 limits assumed, chain 2 of 2): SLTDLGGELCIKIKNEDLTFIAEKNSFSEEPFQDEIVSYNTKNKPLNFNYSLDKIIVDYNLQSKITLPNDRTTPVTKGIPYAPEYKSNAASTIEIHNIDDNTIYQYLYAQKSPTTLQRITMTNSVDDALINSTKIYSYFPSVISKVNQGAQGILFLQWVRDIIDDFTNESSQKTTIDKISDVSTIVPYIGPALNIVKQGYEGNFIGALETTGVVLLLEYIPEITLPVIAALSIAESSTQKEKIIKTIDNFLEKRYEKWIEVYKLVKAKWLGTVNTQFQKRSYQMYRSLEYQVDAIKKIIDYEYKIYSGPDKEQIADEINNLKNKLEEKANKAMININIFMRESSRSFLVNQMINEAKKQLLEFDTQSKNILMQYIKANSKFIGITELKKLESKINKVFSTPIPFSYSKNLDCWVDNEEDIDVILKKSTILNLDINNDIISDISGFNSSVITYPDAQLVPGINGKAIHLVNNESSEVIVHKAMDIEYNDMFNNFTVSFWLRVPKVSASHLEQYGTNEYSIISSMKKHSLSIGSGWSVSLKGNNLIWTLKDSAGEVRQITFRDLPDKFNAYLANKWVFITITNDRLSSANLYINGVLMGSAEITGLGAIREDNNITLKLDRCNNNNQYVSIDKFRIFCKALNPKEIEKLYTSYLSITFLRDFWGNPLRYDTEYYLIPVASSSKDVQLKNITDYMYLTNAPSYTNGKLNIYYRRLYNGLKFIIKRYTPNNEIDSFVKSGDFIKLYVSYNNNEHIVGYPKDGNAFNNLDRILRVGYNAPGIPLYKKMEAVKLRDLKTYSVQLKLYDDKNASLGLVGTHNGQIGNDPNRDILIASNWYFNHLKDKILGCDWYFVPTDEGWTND

[2] = molecular target: T1, tetanus neurotoxin (TeNT), authentic …; experiment: competition ELISA on TeNT, binder biotinylated; competitor SVT34L
[3] = molecular target: T1, tetanus neurotoxin (TeNT), authentic …; experiment: competition ELISA on TeNT, binder biotinylated; competitor mAb 6F57
Target sequence in this assay (P04958 2-457 limits assumed, chain 1 of 2): as the sequence (P04958 2-457 limits assumed, chain 1 of 2) above
Target sequence in this assay (P04958 458-1315 limits assumed, chain 2 of 2): as the sequence (P04958 458-1315 limits assumed, chain 2 of 2) above

[4] = molecular target: T1, tetanus neurotoxin (TeNT), authentic …; experiment: competition ELISA on TeNT, binder biotinylated; competitor SVT16L
Target sequence in this assay (P04958 2-457 limits assumed, chain 1 of 2): as the sequence (P04958 2-457 limits assumed, chain 1 of 2) above
Target sequence in this assay (P04958 458-1315 limits assumed, chain 2 of 2): as the sequence (P04958 458-1315 limits assumed, chain 2 of 2) above

[5] = molecular target: T1, tetanus neurotoxin (TeNT), authentic …; experiment: competition ELISA on TeNT, binder biotinylated; competitor SVT22L
[6] = molecular target: T1, tetanus neurotoxin (TeNT), authentic …; experiment: ELISA, directly coated TeNT, biotinylated binder
Target sequence in this assay (P04958 2-457 limits assumed, chain 1 of 2): as the sequence (P04958 2-457 limits assumed, chain 1 of 2) above
Target sequence in this assay (P04958 458-1315 limits assumed, chain 2 of 2): as the sequence (P04958 458-1315 limits assumed, chain 2 of 2) above

[7] = molecular target: T1, tetanus neurotoxin (TeNT), authentic …; experiment: GT1b-TeNT inhibition ELISA, EC at A450 0.59
Target sequence in this assay (P04958 2-457 limits assumed, chain 1 of 2): as the sequence (P04958 2-457 limits assumed, chain 1 of 2) above
Target sequence in this assay (P04958 458-1315 limits assumed, chain 2 of 2): as the sequence (P04958 458-1315 limits assumed, chain 2 of 2) above

[8] = molecular target: T1, tetanus neurotoxin (TeNT), authentic …; experiment: competition ELISA on TeNT, binder biotinylated; competitor SVT02L
Target sequence in this assay (P04958 2-457 limits assumed, chain 1 of 2): as the sequence (P04958 2-457 limits assumed, chain 1 of 2) above
Target sequence in this assay (P04958 458-1315 limits assumed, chain 2 of 2): as the sequence (P04958 458-1315 limits assumed, chain 2 of 2) above

[9] = molecular target: T1, tetanus neurotoxin (TeNT), authentic …; experiment: competition ELISA on TeNT, binder biotinylated; competitor mAb 11n185
[10] = molecular target: T2, recombinant tetanus toxin fragment C (rTTC) (Clostridium tetani, UniProt P04958 865-1315); experiment: ELISA, directly coated rTTC, unlabelled binder
T2 sequence: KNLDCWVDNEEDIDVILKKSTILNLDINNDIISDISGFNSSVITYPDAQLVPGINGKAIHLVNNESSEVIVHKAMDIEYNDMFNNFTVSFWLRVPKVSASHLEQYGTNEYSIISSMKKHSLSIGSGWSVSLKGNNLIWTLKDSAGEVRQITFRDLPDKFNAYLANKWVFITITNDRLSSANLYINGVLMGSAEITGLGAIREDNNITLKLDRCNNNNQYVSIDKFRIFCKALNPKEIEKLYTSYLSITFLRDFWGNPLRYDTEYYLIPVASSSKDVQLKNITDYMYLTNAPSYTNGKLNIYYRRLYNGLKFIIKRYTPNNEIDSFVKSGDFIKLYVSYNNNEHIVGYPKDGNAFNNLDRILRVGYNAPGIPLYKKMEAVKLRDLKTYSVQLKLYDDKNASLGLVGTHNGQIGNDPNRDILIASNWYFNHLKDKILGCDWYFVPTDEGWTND

[11] = molecular target: T1, tetanus neurotoxin (TeNT), authentic …; experiment: competition ELISA on TeNT, binder biotinylated; competitor SVT03L
[12] = molecular target: T1, tetanus neurotoxin (TeNT), authentic …; experiment: ELISA, TeNT captured with cAb-TT2, biotinylated binder
[13] = molecular target: T1, tetanus neurotoxin (TeNT), authentic …; experiment: competition ELISA on TeNT, binder biotinylated; competitor mAb 14F5
[14] = molecular target: T1, tetanus neurotoxin (TeNT), authentic …; experiment: competition ELISA on TeNT, binder biotinylated; competitor mAb 6E7
[15] = molecular target: T1, tetanus neurotoxin (TeNT), authentic …; experiment: GT1b-TeNT inhibition ELISA, unlabelled binder
[16] = molecular target: T1, tetanus neurotoxin (TeNT), authentic …; experiment: competition ELISA on TeNT, binder biotinylated; competitor SVT13L
[17] = molecular target: T1, tetanus neurotoxin (TeNT), authentic …; experiment: ELISA, directly coated TeNT, unlabelled binder
[18] = molecular target: T1, tetanus neurotoxin (TeNT), authentic …; experiment: competition ELISA on TeNT, binder biotinylated; competitor SVT15L
[19] = molecular target: T1, tetanus neurotoxin (TeNT), authentic …; experiment: competition ELISA on TeNT, binder biotinylated; competitor SVT15L-3FW4M
[20] = molecular target: T1, tetanus neurotoxin (TeNT), authentic …; experiment: ELISA, TeNT captured with cAb-TT2, unlabelled binder
[21] = molecular target: T1, tetanus neurotoxin (TeNT), authentic …; experiment: competition ELISA on TeNT, binder biotinylated; competitor SVT08L
[22] = molecular target: T3, tetanus neurotoxin (TeNT), authentic tetanus holotoxin (Clostridium tetani, UniProt P04958 2-1315); experiment: bridging ELISA: coated TeNT, SDA, biotinylated TeNT, StrepPO (bivalent binding)
[23] = molecular target: T3, tetanus neurotoxin (TeNT), authentic …; experiment: GT1b-TeNT inhibition ELISA
[24] = molecular target: T3, tetanus neurotoxin (TeNT), authentic …; experiment: GT1b-TeNT inhibition ELISA; remark: listed apart in the source
[25] = molecular target: T3, tetanus neurotoxin (TeNT), authentic …; experiment: ELISA: directly coated TeNT, goat anti-llama Ig PO
[26] = molecular target: T3, tetanus neurotoxin (TeNT), authentic …; experiment: ELISA: directly coated TeNT, goat anti-llama Ig PO; remark: listed apart in the source
[27] = molecular target: T3, tetanus neurotoxin (TeNT), authentic …; experiment: ELISA: directly coated TeNT, anti-his6 PO
[28] = molecular target: T3, tetanus neurotoxin (TeNT), authentic …; experiment: ELISA: directly coated TeNT, anti-his6 PO; remark: listed apart in the source
[29] = molecular target: T3, tetanus neurotoxin (TeNT), authentic …; experiment: bridging ELISA: coated TeNT, SDA, biotinylated TeNT, StrepPO (bivalent binding); remark: listed apart in the source

B1: SVT08L (VHH)
VHH: QVQLQESGGGSVQAGGSLRLSCTASEFSYNDYTIAWFRRAAGKGRVEDGEGVASITTSYDRAYDNRIHYGDSVKGRFTISRDNAKNTVYLQMTNLNPSDTAVYYCGLDITPPGGIGASLTEGFLFDYWGQGTQVTVSS
[1]
  % inhibition of binding: 95%
[2]
  % inhibition of binding: 8%
[3]
  % inhibition of binding: 50%
[4]
  % inhibition of binding: 8%
[5]
  % inhibition of binding: 6%
[6]
  EC resulting in A450 0.4: 0.4 ng/mL
  maximal absorbance at 450 nm: 1.57
[7]
  concentration giving A450 of 0.59: 0.411 µg/mL
[8]
  % inhibition of binding: 7%
[9]
  % inhibition of binding: 4%
[10]
  maximal absorbance at 450 nm: 0.502
[11]
  % inhibition of binding: 0%
[12]
  EC resulting in A450 0.2: 0.52 ng/mL
  maximal absorbance at 450 nm: 1.2
[13]
  % inhibition of binding: 3%
[14]
  % inhibition of binding: 66%
[15]
  minimal absorbance at 450 nm: 0.486
[16]
  % inhibition of binding: 5%
[17]
  EC resulting in A450 0.2: 2.2 ng/mL
  maximal absorbance at 450 nm: 1.37
[18]
  % inhibition of binding: 6%
[19]
  % inhibition of binding: 12%
[20]
  EC resulting in A450 0.15: 3.6 ng/mL
  maximal absorbance at 450 nm: 0.36
[21]
  % inhibition of binding: 96%

B2: SVT06L (VHH)
VHH: QVQLQESGGGSVQAGGSLRLSCTASELSYDDYTIAWFRRAAGEGRVEDGEGVASITKSYDRAYDNKINYGHSVKGRFTISRDNAKNTVYLQMTDLLPSDTAVYYCALDITPPGGVGASLTEGFLFDYWGQGTQVTVSS
[1]
  % inhibition of binding: 96%
[2]
  % inhibition of binding: 11%
[3]
  % inhibition of binding: 53%
[4]
  % inhibition of binding: -3%
[5]
  % inhibition of binding: 3%
[6]
  EC resulting in A450 0.4: 0.39 ng/mL
  maximal absorbance at 450 nm: 1.51
[7]
  concentration giving A450 of 0.59: 0.317 µg/mL
[8]
  % inhibition of binding: 11%
[9]
  % inhibition of binding: 5%
[10]
  maximal absorbance at 450 nm: 0.543
[11]
  % inhibition of binding: -3%
[12]
  EC resulting in A450 0.2: 0.37 ng/mL
  maximal absorbance at 450 nm: 1.2
[13]
  % inhibition of binding: 11%
[14]
  % inhibition of binding: 67%
[15]
  minimal absorbance at 450 nm: 0.481
[16]
  % inhibition of binding: 7%
[17]
  EC resulting in A450 0.2: 1.7 ng/mL
  maximal absorbance at 450 nm: 1.39
[18]
  % inhibition of binding: 14%
[19]
  % inhibition of binding: 12%
[20]
  EC resulting in A450 0.15: 2.6 ng/mL
  maximal absorbance at 450 nm: 0.409
[21]
  % inhibition of binding: 97%

B3: SVT15L (VHH)
VHH: QVQLQESGGGLVQTGGSLRLSCRASGRAFANYHFGWFRQAPGKDREFVASISWKGGSTYYANFALGRFTSSVDRAESSVYLQMSGLTPEDTATYYCAAHDGGDWNYHTGMDYWGKGILVTVSS
[1]
  % inhibition of binding: 1%
[2]
  % inhibition of binding: 10%
[3]
  % inhibition of binding: 4%
[4]
  % inhibition of binding: 5%
[5]
  % inhibition of binding: 2%
[6]
  EC resulting in A450 0.4: 2.8 ng/mL
  maximal absorbance at 450 nm: 1.4
[7]
  concentration giving A450 of 0.59: 0.072 µg/mL
[8]
  % inhibition of binding: 6%
[9]
  % inhibition of binding: 0%
[10]
  maximal absorbance at 450 nm: 0.528
[11]
  % inhibition of binding: -5%
[12]
  EC resulting in A450 0.2: 5.7 ng/mL
  maximal absorbance at 450 nm: 0.825
[13]
  % inhibition of binding: 7%
[14]
  % inhibition of binding: 6%
[15]
  minimal absorbance at 450 nm: 0.14
[16]
  % inhibition of binding: 2%
[17]
  EC resulting in A450 0.2: 2.8 ng/mL
  maximal absorbance at 450 nm: 1.34
[18]
  % inhibition of binding: 96%
[19]
  % inhibition of binding: 96%
[20]
  EC resulting in A450 0.15: 5.7 ng/mL
  maximal absorbance at 450 nm: 0.477
[21]
  % inhibition of binding: 15%

B4: SVT13L (VHH)
VHH: QVQLQESGGGLVQAGGSLRLSCAVSGTNFDDYAIGWFRQAPGKRREAVACISKTDGVTRYGNGVKGRFTISSDEARNTVFLQMNDLKDEDTAIYYCIGDFKSCGMGYKPIDHWGRGIQVTVSS
[1]
  % inhibition of binding: 1%
[2]
  % inhibition of binding: 91%
[3]
  % inhibition of binding: 0%
[4]
  % inhibition of binding: 91%
[5]
  % inhibition of binding: 92%
[6]
  EC resulting in A450 0.4: 0.57 ng/mL
  maximal absorbance at 450 nm: 1.48
[7]
  concentration giving A450 of 0.59: 0.082 µg/mL
[8]
  % inhibition of binding: 7%
[9]
  % inhibition of binding: 2%
[10]
  maximal absorbance at 450 nm: 1.1
[11]
  % inhibition of binding: 1%
[12]
  EC resulting in A450 0.2: 1.3 ng/mL
  maximal absorbance at 450 nm: 1.06
[13]
  % inhibition of binding: 5%
[14]
  % inhibition of binding: 2%
[15]
  minimal absorbance at 450 nm: 0.126
[16]
  % inhibition of binding: 95%
[17]
  EC resulting in A450 0.2: 1.9 ng/mL
  maximal absorbance at 450 nm: 1.54
[18]
  % inhibition of binding: -19%
[19]
  % inhibition of binding: 8%
[20]
  EC resulting in A450 0.15: 4.1 ng/mL
  maximal absorbance at 450 nm: 0.487
[21]
  % inhibition of binding: 13%

B5: SVT15L-3FW4M (VHH)
VHH: QVQLQESGGGLVQTGGSLRLSCRASGRAFANYHFGWFRQAPGKDREFVASISWKGGSTYYANFALGRFTSSVDRAESSVYLQMSGLTPEDTATYYCAAHDGGDWNYHTGMDYWGQGTQVTVSS
[22]
  maximal absorbance value: 0.2 A450
[23]
  Effective SDA Concentration at A450 0.56: 31 ng/mL
[24]
  minimal absorbance value (GT1b-TeNT inhibition): 0.19 A450
[25]
  Effective SDA Concentration at A450 0.15: 6 ng/mL
[26]
  maximal absorbance value: 0.35 A450
[27]
  Effective SDA Concentration at A450 0.15: 26 ng/mL
[28]
  maximal absorbance value: 0.19 A450
[29]
  Effective SDA Concentration at A450 0.3: > 1000 ng/mL
